The assay deals with HMW protein antigen of the anti-HMW EIA. The experiment in a line: antigen-specific EIA, control chinchilla serum IgG titer on coated antigen, second experiment.

Substance “serum of control chinchillas immunized with alum alone (antibody)” displayed an Anti-HMW antibody titers Log2 (Titers/100) (Log2 (Titers/100)) of under 0.05.

For the origin of these results see patent publication EP1117807B1.
